This data set can be described thus: yeast display, Sf9 membrane polyspecificity reagent, FACS + sequencing; frameworks hold sequencing errors. In a few lines:
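Galactose induction of a Saccharomyces cerevisiae BJ5465 synthetic nanobody display library ran 36–48 hours. The cells were then stained for 1 hour at 4 °C with 10% biotinylated, detergent-solubilized Sf9 membrane reagent, pulled down on streptavidin microbeads and FACS-sorted into low and high (top ~1%) gates on expression and reagent-binding fluorescence. Labels for polyreactivity follow the gate of origin.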
Take “QVQLVESGGGLVQAGGSLRLICAPSGSIFTYYAMGRYRQAPGKEKELVAAISQSGGTTYYADSVKGRFTISRDNAKNTVYLQMNSLKPEDTAVSYCAARAPSSFDTQYYYWGQGTQVTVSS”: the “polyreactivity (PSR sort gate)” value is recorded as “low polyreactivity”.
As for “QVQLVESGGGLVQAGGSLRLICAPSGSTNRYYAIGWSRQAPRKEMELVAPISWRGGSTYYADSVKGRFRISRDNANNTVYLEMNSLKPEDTAVYYCNAAYSYAVRDPIDYGYWGQGTQVTVSS”, the entry is “high polyreactivity”; as for “QVQLVESGGGLVQAGGSLRLICDASGIYYRNAMGWYRQAPGKEREMVAAISWSGGSTYYADSVKGRFTISRDNAKNTVYLQMNSLNPEDTAVYYCAAVGGRYPSNVLGYYYWGQGTQVTVSS”, “high polyreactivity”.
Consider “QVQLVESGGGLVQAGGSLRLICDASGRIFQFYAMGWYRQAPGKERELVAVITRRGGSTHYADSVKGRFTISRDNAKNTVYLQMNSLNPEDTAVYYCAAEWQTQGYEYWGQGTQVTVSS”, for which the “polyreactivity (PSR sort gate)” value was “high polyreactivity”.
As for “QVQLVESGGGLVQAGGSLRLICDASGSIFRYYAMGWYRQAPGKERELVARISWRAGSTYADSVKGRFTISRDYAKNTVYLQINSQKPEDTAVYYCNADAHKDSWVGTSEYEYWGQGTQVTVSS”, the entry is “high polyreactivity”; as for “QVQLVESGGGLVQAGGSLRLLCAASGFTFGFNAMGWYRQAPGKERELVAAISRGGSTNYADSVKGLFTISRDNAKNTVYLQMNSLKPEDTAVYYCAADVITYVFRFYYWGQGTQVTVSS”, “low polyreactivity”.
Regarding “QVQLVESGGGLVQAGGSLRLRCAASAGTFGIYSMGWYRQAPGKEREFVAAISGRGGTTYDADSVKGRFTISRDNAKYTVYLQMNSLKPVDTAVYYWATDSVNVGSNVGDKHDYWGQGTQVTVSS”, the “polyreactivity (PSR sort gate)” value is given as “low polyreactivity”.
On to “QVQLVESGGGLVQAGGSLRLRCAASGFIFCSYAMGWYRQAPGKERELVAAINTSGDSTYYADSVKGRFTISRDNAKNTVYLQINSLKPEDTAVYYCAAESSPDGYFLSDYWGQGTQVTVSS”, for which the “polyreactivity (PSR sort gate)” value is “low polyreactivity”.
As for “QVQLVESGGGLVQAGGSLRLRCAASGFIFGYYAMGWYRQAPGKERELVAAITTSGGSTYYADSVKARFTISRDNAKNTVYLQMNSLKPEDTAVYYCNKPGNYVWRRSWDFDYWGQGTQVTVSS”, the entry is “high polyreactivity”; as for “QVQLVESGGGLVQAGGSLRLRCAASGFTFAPNAMGWYRQAPGKERELVAAITWSGGSTYYADSVKGRFTISRDNAKNTVYVQMNSLKPEDTAVYYCNAVSRSTVTGQHDFWGQGTQVTVSS”, “high polyreactivity”.
As to “QVQLVESGGGLVQAGGSLRLRCAASGGIFGFYAMGWYRQAPGKERELVAAISWGGGSTYYADSVKGRFTIARDNAKNTVFVQMNSLKPEDTAVYYCAADPALTKEYGYWGQGTQVTVSS”, the “polyreactivity (PSR sort gate)” value is reported as “low polyreactivity”.
As for “QVQLVESGGGLVQAGGSLRLRCAASGGIFTNNAKGWYRQAPGKERELVAAITGSGASTYYADSVKARFTISRDNAKNSVYLHLNSLKPEDTAVYYCNTDSPYGWEGEFDYWGLGTQVTVSS”, the entry is “high polyreactivity”; as for “QVQLVESGGGLVQAGGSLRLRCAASGGTFGVNAMGWYRQAPGKERELVAAISSSGGRTYYADSVKGRFTISRDNAKNTVYLQMNSLKPEDTAVYYCAARNYFWGQGTQVTVSS”, “low polyreactivity”.
In the case of “QVQLVESGGGLVQAGGSLRLRCAASGIIFEYYAMGWYRQAPGKERELVAAITWNGGRTYYADSVKGRFTISRDNAKNTVYLQINSLKPEDTAVYYCAALTYYRDYWGLGTQVTVSS” it was “high polyreactivity”.
For the sequence “QVQLVESGGGLVQAGGSLRLRCAASGIIFRGYAMGWYRPAPGKERELVAGITSGGDTNYADSVKGRFTISRDNAKNTVYVQMNSMNPEDTEGYYCATSDRRYRGRHYPFYKFDYWGQGPQVTVSS”, the “polyreactivity (PSR sort gate)” value is “low polyreactivity”.
As for “QVQLVESGGGLVQAGGSLRLRCAASGIIFYRYAMGWYRQAPGKERELVAAINTSGGRTYYADSVKGRFTISRDNAKNTVYLQMNSLKPEDTAVYYCAAYYSPVGFQYDYWGQGTQVTVSS”, the entry is “high polyreactivity”.

Values taken from the nanobody polyreactivity screen of Harvey et al. (2022).
